Measurements taken from US20210301005A1.

Assays:
[1] = molecular target: human TGFβ3, mature dimeric form (human) (UniProt P10600)
[2] = molecular target: human TGFβ1, mature receptor-binding domain (human) (UniProt P01137)
[3] = molecular target: human TGFβ2, mature receptor-binding domain (human)
[4] = molecular target: human TGFβ3, mature dimeric form (human) (UniProt P10600); remark: listed apart in the source

human TGFβ3, mature dimeric form (human), sequence (P10600 301-412): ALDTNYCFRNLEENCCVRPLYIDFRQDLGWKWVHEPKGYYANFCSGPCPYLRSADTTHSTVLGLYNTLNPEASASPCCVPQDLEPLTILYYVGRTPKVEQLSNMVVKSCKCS
human TGFβ2, mature receptor-binding domain (human), sequence (P09858 303-414 limits assumed): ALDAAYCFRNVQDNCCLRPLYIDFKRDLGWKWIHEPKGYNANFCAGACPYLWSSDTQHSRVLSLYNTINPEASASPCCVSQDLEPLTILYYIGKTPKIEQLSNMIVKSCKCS
human TGFβ1, mature receptor-binding domain (human), sequence (P01137 279-390 limits assumed): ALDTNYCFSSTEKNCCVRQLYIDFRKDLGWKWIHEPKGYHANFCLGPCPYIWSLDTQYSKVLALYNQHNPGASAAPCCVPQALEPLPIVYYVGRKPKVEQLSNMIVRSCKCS

IC50 (read off the curve) [1] | IC50 [2] | IC50 [3] | IC50 [4] | Binder
0.0006 µM | 10.1 µM | 0.548 µM | 0.525 µM | Fc-LAP2 (Fc fusion, not shown: a dimerising Fc or GST) SLSTCSTLDMDQFMRKRIEAIRGQILSKLKLTSPPEDYPEPEEVPPEVISIYNSTRDLLQEKASRRAAACERERSDEEYYAKEVYKIDMPPFFPSENAIPPTFYRPYFRIVRFDVSAMEKNASNLVKAEFRVFRLQNPKARVPEQRIELYQILKSKDLTSPTQRYIDSKVVKTRAEGEWLSFDVTDAVHEWLHHKDRNLGFKISLHCPCCTFVPSNNYIIPNKSEELEARFAGIDGTSTYTSGDQKTIKSTRKKNSGKTPHLLLMLLPSYRLESQQTNRRKKR
– | – | 12.4 µM | 2.92 µM | Fc-LAP3 (Fc fusion, not shown: a dimerising Fc or GST) LSTCTTLDFGHIKKKRVEAIRGQILSKLRLTSPPEPTVMTHVPYQVLALYNSTRELLEEMHGEREEGCTQENTESEYYAKEIHKFDMIQGLAEHNELAVCPKGITSKVFRFNVSSVEKNRTNLFRAEFRVLRVPNPSSKRNEQRIELFQILRPDEHIAKQRYIGGKNLPTRGTAEWLSFDVTDTVREWLLRRESNLGLEISIHCPCHTFQPNGDILENIHEVMEIKFKGVDNEDDHGRGDLGRLKKQKDHHNPHLILMMIPPHRLDNPGQGGQRKKR
